Data published in patent US20160108113A1 (Genentech, published 2016).
Where “and” joins values, the source holds several entries; their conditions need not be identical. Equal entries are not always repeated.

T1: peptide corresponding to amino acid residues 37-51 of human α-synuclein (human)
T1 construct: One of a series of 15-mer peptides spanning the length of human α-synuclein; also called 15-mer peptide
T1 peptide: VLYVGSKTKEGVVHG

T2: synthetic peptide corresponding to amino acid residues 105-123 in human α-synuclein (human)
T2 construct: also called unlabeled peptide
T2 peptide: EGAPQEGILEDMPVDPDNE

B1: anti-α-synuclein monoclonal antibody 1F7 (mIgG2a) (antibody, V domains shown)
VH: EVQLQQSGAELVKPGASVKLSCTASGFNIKDYYMDWVKQRTEQGLEWIARIDPEDGETKYAPKFQGKATITADTSSNTAYLQLSSLTSEDTAVYYCRVFDYWGQGTTLTVSS
VL: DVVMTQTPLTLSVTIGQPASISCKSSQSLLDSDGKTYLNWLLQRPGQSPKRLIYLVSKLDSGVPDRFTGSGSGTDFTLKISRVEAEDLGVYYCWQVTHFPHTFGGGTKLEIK
notes: Mouse monoclonal, mIgG2a, expressed recombinantly in 293 cells
B2: anti-α-synuclein monoclonal antibody 13F3 Fab (Fab, V domains shown)
VH: QVQLQQSGAELVKPGASVKMSCKASGYTFTSYWITWVKKRPGQGLEWIGDISPGSGSTHYNEKFKSKATLTVDTSSSTAYIQLFSLTSEDSAVYYCAIAQTTFAYWGQGTLVTVSA
VL: DVLMTQTPLSLPVSLGDQASISCRSSQSIVHSNGNTYLEWYLQKPGQSPKLLIYKVSNRFSGVPDRFSGSGSGTDFTLKISRVEAEDLGVYYCFQGSHVPPTFGGGTRLEIK
notes: also called 13F3 Fab fragment
B3: anti-α-synuclein monoclonal antibody 13F3 (mIgG2a) (antibody, V domains shown)
VH: B2 VH
VL: B2 VL
notes: as for B1

Tests used:
[1] = biological target: T1, peptide corresponding to amino acid …; test: peptide mapping with a series of 15-mer peptides
[2] = biological target: T3, recombinant human α-synuclein (human, UniProt P37840 1-140); test: SPR Biacore T200, antibody capture format, steady-state analysis (text summary of Table 2)
Experimental: (§1) Monovalent affinities of anti-α-synuclein antibodies 13F3 and 1F7 for human α-synuclein were assessed using Surface Plasmon Resonance in a Biacore T200 instrument. These experiments utilized an antibody capture format where the test antibody was immobilized by binding the test antibody to a chip pre-coated with a murine IgG capture reagent and subsequently allowed to bind α-synuclein protein in solution.
(§2) A murine IgG capture chip was prepared using the GE murine IgG capture kit according to the manufacturer's instructions. Briefly, a Series S CM5 sensor chip was activated with a mixture of EDC/NHS before exposure to a solution of capture antibody in a 10 mM sodium acetate (pH 5.0) buffer. Remaining covalent attachment sites were blocked with ethanolamine.
(§3) To assess binding, anti-α-synuclein monoclonal antibody 13F3 and anti-α-synuclein monoclonal antibody 1F7 were captured using a 1 μg/ml solution in running buffer (1×HBSP; 10 mM HEPES, pH 7.4, 150 mM NaCl, 0.05% Tween20) at a flow rate of 10 μl/min. Binding of human α-synuclein in solution was monitored at six different concentrations (a three-fold dilution series spanning concentrations from single-digit nanomolar to greater than 1 μM) and one replicate concentration, at a flow rate of 30 μl/min. […]

[3] = biological target: T3, recombinant human α-synuclein; test: SPR Biacore T200, antibody captured on murine IgG capture chip, α-synuclein in solution, steady-state analysis, 25 C, Expt B
Experimental: as §1, §2, §3

[4] = biological target: T3, recombinant human α-synuclein; test: SPR Biacore T200, antibody captured on murine IgG capture chip, α-synuclein in solution, steady-state analysis, 25 C, Expt A
Experimental: as §1, §2, §3

[5] = biological target: 13C/15N labeled recombinant human α-synuclein (human, UniProt P37840 1-140); test: NMR 2D HSQC-TROSY, 1:0.5 α-synuclein:Fab; cutoff for epitope residues was attenuation above 50
Experimental: (§4) NMR was used to identify the binding epitope of anti-α-synuclein monoclonal antibody 13F3 and of anti-α-synuclein monoclonal antibody 1F7 as follows. NMR samples were prepared by adding a solution of ¹³C/¹⁵N labeled recombinant human α-synuclein in PBS […] at a concentration of 1 mg/ml (71 μM) purchased from Giotto Biotech (Sesto Fiorentino (FI), Italy) to a volume of 180 μl into 3 mm NMR tubes. Complex formation of the antibody bound form of α-synuclein was achieved by addition of an 18 mg/ml (120 μM) solution of antibody 13F3 and 17.8 mg/ml (118 μM) of antibody 1F7 in PBS (pH 7.2) in aliquots of 9 μl to the NMR sample. 2D HSQC-TROSY spectra were recorded at increasing concentration of Fab and the proton-amide cross peak intensity monitored in CCPN. (See Vranken et al (2005) Proteins 59:687-696.) All spectra were recorded at calibrated 300 K on a Bruker 600 MHz spectrometer using a 5 mm TXI cryo-probe. The final molar ratio used for data analysis of 1:0.5 α-synuclein:Fab. All data was processed using Topspin 3.1 (Bruker Karlsruhe, Germany) and visualized and analyzed using CCPN. Samples of ¹³C/¹⁵N labeled α-synuclein were measured in PBS (pH 7.2) buffer at 1 mg/ml corresponding to a concentration of 71 μM. […] Signal intensities were evaluated in CCPN. The signal errors were extrapolated in CCPN based on the signal to noise of the recorded data. […]

[6] = biological target: T2, synthetic peptide corresponding to …; test: NMR competition, unlabeled peptide added to the Fab-α-synuclein complex
Experimental: as §4

Row | Binder | binding result [1] | Kd [2] | Kd [3] [nM] | Kd [4] | NMR signal attenuation at isoleucine 112 [5] [fold] | binding result [6]
1 | B1 | binds | 180 nM | 160 | 130 nM | – | –
2 | B2 | – | – | – | – | 1.79 | binds
3 | B3 | – | 450 nM and 470 nM | 460 | 410 nM and 490 nM | – | –
